# Laboratory results reported in publication PMC10454455.
# How the values were obtained:
# [1] = target: CH505 T/F UFO Env trimer (HIV-1 (subject CH505)); assay: SEC; lectin-purified Env proteins separated on a Superdex 200 Increase 10/300 GL column
# [2] = target: CH505 T/F UFO Env trimer (HIV-1 (subject CH505)); assay: native gel or EMSA; blue native gel (NativePAGE 3-12% Bis-Tris) of the fractions collected from SEC
substance,measurement,setting,value
CH505 T/F UFO Env trimer,stoichiometry N,[1],3
same,stoichiometry N,[2],3
